These are literature values, as cited in patent publication US9932367B2, “Modification of polypeptides” (BicycleRD Limited, priority 2013, dated 2018).

A word on the Ki: it is the dissociation constant of the complex between target and ligand, obtained from inhibition or displacement.

One data set deals with human PK (hPK) (Homo sapiens, UniProt P03952).
Another data set concerns the target rat PK (Rattus norvegicus, UniProt P14272). The note with it: highest concentration tested (10 μM).
The target in another data set is factor XIa (hfXIa) (Homo sapiens, UniProt P03951). The note with it: highest concentration tested (10 μM).
A further data set concerns the target thrombin (Homo sapiens, UniProt P00734). The settings on record: highest concentration tested (10 μM).

Starred links: 1 amine or outer side, 2 acyl side, 3 side chain; linkers in the order of their positions; H or OH if unused. Positions of bridges follow the written chain, without caps; N, C: chain ends. TBMB = c1c(C[*:1])cc(C[*:3])cc1C[*:2]

factor XIa (hfXIa), sequence (P03951 388-625 limits assumed): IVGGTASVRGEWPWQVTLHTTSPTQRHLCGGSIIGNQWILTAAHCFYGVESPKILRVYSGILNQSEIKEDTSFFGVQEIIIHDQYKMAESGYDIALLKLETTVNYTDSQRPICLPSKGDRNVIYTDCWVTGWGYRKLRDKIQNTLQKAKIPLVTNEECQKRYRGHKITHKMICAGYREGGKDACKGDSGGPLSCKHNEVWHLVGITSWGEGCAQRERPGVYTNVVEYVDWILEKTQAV
factor XIa (hfXIa), sequence (P03951 19-387 partner limits assumed): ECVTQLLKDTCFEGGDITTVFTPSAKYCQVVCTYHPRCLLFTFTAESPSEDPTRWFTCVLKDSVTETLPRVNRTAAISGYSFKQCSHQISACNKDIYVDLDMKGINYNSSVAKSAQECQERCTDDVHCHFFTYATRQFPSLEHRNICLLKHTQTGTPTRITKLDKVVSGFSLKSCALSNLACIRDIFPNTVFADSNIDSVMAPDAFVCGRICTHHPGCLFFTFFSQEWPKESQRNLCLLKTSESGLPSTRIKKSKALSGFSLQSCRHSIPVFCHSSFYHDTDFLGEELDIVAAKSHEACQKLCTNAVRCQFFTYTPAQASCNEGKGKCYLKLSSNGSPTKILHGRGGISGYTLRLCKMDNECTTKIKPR
human PK (hPK), sequence (P03952 391-638 limits assumed): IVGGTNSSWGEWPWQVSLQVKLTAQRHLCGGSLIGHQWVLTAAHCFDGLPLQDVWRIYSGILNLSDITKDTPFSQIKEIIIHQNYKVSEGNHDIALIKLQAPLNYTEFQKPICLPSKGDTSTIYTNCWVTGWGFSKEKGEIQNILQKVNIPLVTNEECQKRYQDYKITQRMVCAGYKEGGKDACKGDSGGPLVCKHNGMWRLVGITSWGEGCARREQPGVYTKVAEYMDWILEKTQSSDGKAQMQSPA
human PK (hPK), sequence (P03952 20-390 partner limits assumed): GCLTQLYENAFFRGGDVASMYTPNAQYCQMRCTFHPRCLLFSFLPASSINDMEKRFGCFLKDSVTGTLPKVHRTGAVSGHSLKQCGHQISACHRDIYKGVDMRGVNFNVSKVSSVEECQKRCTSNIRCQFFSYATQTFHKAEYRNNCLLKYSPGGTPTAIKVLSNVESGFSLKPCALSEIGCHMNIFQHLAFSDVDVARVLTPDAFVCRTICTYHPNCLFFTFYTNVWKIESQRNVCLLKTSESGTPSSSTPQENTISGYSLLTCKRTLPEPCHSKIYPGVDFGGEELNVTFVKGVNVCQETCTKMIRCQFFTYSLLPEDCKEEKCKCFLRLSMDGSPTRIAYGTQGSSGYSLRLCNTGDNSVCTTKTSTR
rat PK, sequence (P14272 20-638): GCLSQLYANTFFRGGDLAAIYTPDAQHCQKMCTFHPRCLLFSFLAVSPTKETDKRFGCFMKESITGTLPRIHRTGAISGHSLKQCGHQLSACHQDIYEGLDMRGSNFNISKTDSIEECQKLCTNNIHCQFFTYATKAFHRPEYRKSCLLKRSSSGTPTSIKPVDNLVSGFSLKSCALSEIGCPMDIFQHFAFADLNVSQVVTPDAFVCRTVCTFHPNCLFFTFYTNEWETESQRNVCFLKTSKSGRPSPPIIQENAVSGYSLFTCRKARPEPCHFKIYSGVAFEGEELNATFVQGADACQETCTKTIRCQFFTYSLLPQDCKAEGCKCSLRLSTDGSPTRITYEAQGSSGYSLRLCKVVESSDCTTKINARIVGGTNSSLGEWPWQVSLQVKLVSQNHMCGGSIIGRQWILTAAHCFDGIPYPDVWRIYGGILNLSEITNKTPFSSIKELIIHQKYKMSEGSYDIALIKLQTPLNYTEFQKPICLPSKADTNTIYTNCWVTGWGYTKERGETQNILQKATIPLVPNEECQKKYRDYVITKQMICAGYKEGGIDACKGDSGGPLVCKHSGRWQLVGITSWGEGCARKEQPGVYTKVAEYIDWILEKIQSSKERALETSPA

On to “three cysteines containing peptide (H-ACSDRFRNCPADEALCG-NH2) (SEQ ID NO: 18) coupled with TBMB; inhibitor of human plasma kallikrein (linker 2-9-16 via TBMB) [PK15]”, for which, in the data set with human PK (hPK), the Ki was 3 nM. Besides, the “inhibition of rat PK” value in the data set with rat PK was “did not inhibit”. Moreover, the “inhibition of human factor XIa” value with factor XIa (hfXIa) is given as “did not inhibit”. Further, the inhibition of thrombin entry in the data set with thrombin is on record as “did not inhibit”.
